Assay results: IntAct's records for PubMed 11880648

B1: RNA polymerase sigma factor SigA (Mycobacterium tuberculosis (strain ATCC 25618 / P9WGI1 (parent)
chain: MAATKASTATDEPVKRTATKSPAASASGAKTGAKRTAAKSASGSPPAKRATKPAARSVKPASAPQDTTTSTIPKRKTRAAAKSAAAKAPSARGHATKPRAPKDAQHEAATDPEDALDSVEELDAEPDLDVEPGEDLDLDAADLNLDDLEDDVAPDADDDLDSGDDEDHEDLEAEAAVAPGQTADDDEEIAEPTEKDKASGDFVWDEDESEALRQARKDAELTASADSVRAYLKQIGKVALLNAEEEVELAKRIEAGLYATQLMTELSERGEKLPAAQRRDMMWICRDGDRAKNHLLEANLRLVVSLAKRYTGRGMAFLDLIQEGNLGLIRAVEKFDYTKGYKFSTYATWWIRQAITRAMADQARTIRIPVHMVEVINKLGRIQRELLQDLGREPTPEELAKEMDITPEKVLEIQQYAREPISLDQTIGDEGDSQLGDFIEDSEAVVAVDAVSFTLLQDQLQSVLDTLSEREAGVVRLRFGLTDGQPRTLDEIGQVYGVTRERIRQIESKTMSKLRHPSRSQVLRDYLD
partner: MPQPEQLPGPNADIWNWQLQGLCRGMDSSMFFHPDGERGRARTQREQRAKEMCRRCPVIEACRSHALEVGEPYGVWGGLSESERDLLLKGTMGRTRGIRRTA

Variants of: B1
Details: with whib3_myctu whiB3, P9WF41

Variant	effect of a mutation on the interaction
R515H	disrupting interaction strength
